Laboratory results: patent US20170088632A1 (OMEROS, published 2017)

B1: scFv daughter clone 17N16m_d17N9 (scFv)
scFv: QVQLQQSGPGLVKPSQTLSLTCAISGDSVSSTSAAWNWIRQSPSRGLEWLGRTYYRSKWYNDYAVSVKSRITINPDTSKNQFSLQLNSVTPEDTAVYYCARDPFGVPFDIWGQGTMVTVSSKLSGSASAPKLEEGEFSEARVSYELIQPPSVSVAPGQTATITCAGDNLGKKRVHWYQQRPGQAPVLVIYDDSDRPSGIPDRFSASNSGNTATLTITRGEAGDEADYYCQVWDIATDHVVFGGGTKLTVLAAAGSEQKLISE
notes: also called 17N9 daughter clone
B2: scFv mother clone 4D9 (scFv)
scFv: QITLKESGPVLVKPTETLTLTCTVSGFSLSNARMGVSWIRQPPGKALEWLAHIFSNDEKSYSTSLKSRLTISKDTSKSQVVLTMTNMDPVDTATYYCARMRYSSSLYGMDVWGQGTRVTVSSKLSGSASAPKLEEGEFSEARVSYELIQPPSVSVSPGQTASITCSGDKLGDKYVSWYQQKPGRSPVLVIYRDTKRPSGIPERFSGSNSGNTATLTISGTQAMDEADYYCQAWDSSTVVFGGGTKLTVLAAAGSEQKLISEEDLNSHHHHHH
notes: also called 4D9 (18L16)
B3: scFv mutagenesis clone #90 of 17D20 (scFv)
scFv: QVTLKESGPVLVKPTETLTLTCTVSGFSLSRGKMGVSWIRQPPGKALEWLAHIFSSDEKSYRTSLKSRLTISKDTSKNQVVLTMTNMDPVDTATYYCARIRPGGIDYWGQGTLVTVSSKLSGSASAPKLEEGEFSEARVQPVLTQPPSVSVSPGQTASITCSGDKLGDKFAYWYQQKPGHSPVLVIYQDNKRPSGIPGRFSGSNSGNTATLTISGTQAMDEADYYCQAWDSSTAVFGTGTKVTVLAAAGSEQKLISEEDLNSHHHHHH
B4: scFv mother clone 17N16 (scFv)
scFv: QVQLQQSGPGLVKPSQTLSLTCAISGDSVSSTSAAWNWIRQSPSRGLEWLGRTYYRSKWYNDYAVSVKSRITINPDTSKNQFSLQLNSVTPEDTAVYYCARDPFGVPFDIWGQGTMVTVSSKLSGSASAPKLEEGEFSEARVSYVLTQPPSVSVAPGQTARITCGGNNIGSKNVHWYQQKPGQAPVLVVYDDSDRPSGIPERFSGSNSGNTATLTVSRVEAGDEADYYCQVWDTTTDHVVFGGGTKLTVLAAAGSEQKLISEEDLNSHHHHHH
notes: also called 17N16mc; 17N16m
B5: 17D20 mother clone, F(ab′)2 format (Fab, V domains shown)
VH: QVTLKESGPVLVKPTETLTLTCTVSGFSLSRGKMGVSWIRQPPGKALEWLAHIFSSDEKSYRTSLKSRLTISKDTSKNQVVLTMTNMDPVDTATYYCARIRAGGIDYWGQGTLVTVSS
VL: QPVLTQPPSVSVSPGQTASITCSGDKLGDKFAYWYQQKPGHSPVLVIYQDNKRPSGIPGRFSGSNSGNTATLTISGTQAMDEADYYCQAWDSSTAVFGTGTKVTVLA
notes: also called 17D20 F(ab′)2

Key:
[1] = target: T1, human MASP-2 (human, UniProt O00187 16-686); experiment: cell-based or functional assay
T1 sequence (O00187 16-686): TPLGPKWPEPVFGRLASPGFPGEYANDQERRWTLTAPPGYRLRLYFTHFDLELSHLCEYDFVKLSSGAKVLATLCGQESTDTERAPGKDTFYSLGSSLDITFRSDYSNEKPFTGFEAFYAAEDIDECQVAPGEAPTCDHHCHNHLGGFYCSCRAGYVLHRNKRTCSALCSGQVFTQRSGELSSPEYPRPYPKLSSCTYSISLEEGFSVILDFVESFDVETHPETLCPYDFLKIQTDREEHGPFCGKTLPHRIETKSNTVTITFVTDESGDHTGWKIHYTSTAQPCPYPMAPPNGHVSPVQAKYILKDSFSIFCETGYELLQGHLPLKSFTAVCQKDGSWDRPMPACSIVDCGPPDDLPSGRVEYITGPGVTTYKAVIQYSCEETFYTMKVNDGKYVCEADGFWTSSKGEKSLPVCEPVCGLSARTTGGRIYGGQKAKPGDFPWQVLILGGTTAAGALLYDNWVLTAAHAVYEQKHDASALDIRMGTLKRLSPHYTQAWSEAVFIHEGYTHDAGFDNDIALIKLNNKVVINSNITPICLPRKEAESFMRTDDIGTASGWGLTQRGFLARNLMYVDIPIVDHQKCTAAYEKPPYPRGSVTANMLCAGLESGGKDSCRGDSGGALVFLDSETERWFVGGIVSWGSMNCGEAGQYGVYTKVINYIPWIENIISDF

[2] = target: T2, human MASP-2A (catalytically inactive human MASP-2, Ser618 to Ala618) (human, UniProt O00187 16-686); experiment: ELISA on adsorbed human MASP-2A, purified scFv monomer
T2 construct: the ELISA and Biacore methods say only 'MASP-2A', so a tag may have been present; also called huMASP2A; huMASP-2A
T2 sequence (O00187 16-686 S633A): as the sequence (O00187 16-686) above, with S618A counted along it

[3] = target: T1, human MASP-2; experiment: cell-based or functional assay; remark: listed apart in the source
[4] = target: T2, human MASP-2A (catalytically inactive …); experiment: ELISA, purified scFv titrated on physically adsorbed human MASP-2A
[5] = target: T3, African Green monkey MASP-2 (in African Green monkey serum) (African Green monkey); experiment: cell-based or functional assay
[6] = target: T1, human MASP-2; experiment: cell-based or functional assay; remark: listed apart in the source
[7] = target: rat MASP-2 (in rat serum) (rat, UniProt Q9JJS8 20-685); experiment: cell-based or functional assay
Chain of rat MASP-2 (in rat serum) (Q9JJS8 other isoform, or with tags, fused parts or gaps limits assumed): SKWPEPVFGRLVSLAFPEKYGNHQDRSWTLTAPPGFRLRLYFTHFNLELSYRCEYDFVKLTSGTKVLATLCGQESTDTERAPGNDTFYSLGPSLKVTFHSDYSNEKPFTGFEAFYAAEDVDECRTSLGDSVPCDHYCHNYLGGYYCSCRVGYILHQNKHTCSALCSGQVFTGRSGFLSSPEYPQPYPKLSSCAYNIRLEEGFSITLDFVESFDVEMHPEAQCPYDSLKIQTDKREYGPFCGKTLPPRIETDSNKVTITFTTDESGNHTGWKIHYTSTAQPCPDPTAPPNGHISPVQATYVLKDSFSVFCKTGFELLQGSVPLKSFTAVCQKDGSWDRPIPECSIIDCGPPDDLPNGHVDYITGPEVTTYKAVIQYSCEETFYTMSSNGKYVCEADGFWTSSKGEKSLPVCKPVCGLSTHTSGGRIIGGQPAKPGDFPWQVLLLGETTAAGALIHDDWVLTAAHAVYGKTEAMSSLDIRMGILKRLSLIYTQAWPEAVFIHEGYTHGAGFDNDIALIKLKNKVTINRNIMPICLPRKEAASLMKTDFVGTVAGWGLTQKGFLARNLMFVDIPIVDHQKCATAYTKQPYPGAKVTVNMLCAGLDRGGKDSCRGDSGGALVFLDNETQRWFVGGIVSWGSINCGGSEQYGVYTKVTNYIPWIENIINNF

[8] = target: T2, human MASP-2A (catalytically inactive …); experiment: SPR (Biacore), MASP-2A amine coupled to CM5 chip, scFv monomer in solution
[9] = target: T2, human MASP-2A (catalytically inactive …); experiment: SPR (Biacore), scFv captured by anti-cMyc antibody, MASP-2A in solution; MASP-2 in solution, scFv captured (not immobilized MASP-2)
[10] = target: T3, African Green monkey MASP-2 (in African …); experiment: cell-based or functional assay; remark: listed apart in the source
[11] = target: T1, human MASP-2; experiment: cell-based or functional assay; remark: listed apart in the source
[12] = target: T1, human MASP-2; experiment: cell-based or functional assay; remark: listed apart in the source
[13] = target: T2, human MASP-2A (catalytically inactive …); experiment: Biacore, microscale-expressed scFv on MASP-2A coated CM5 chip
Method: Therefore, three different scFv libraries were constructed by PCR where the amino acid positions 1, 2 and 3 were randomized to the set of all possible 20 amino acids using degenerate codons. After cloning the libraries, microscale expression was performed and scFv binding was monitored on a MASP-2A coated CM5 chip (not shown).

[14] = target: T1, human MASP-2; experiment: cell-based or functional assay; remark: listed apart in the source
[15] = target: T2, human MASP-2A (catalytically inactive …); experiment: titration ELISA on coated human MASP-2A ('Binding affinity'), scFv
[16] = target: T3, African Green monkey MASP-2 (in African …); experiment: cell-based or functional assay; remark: listed apart in the source
[17] = target: T1, human MASP-2; experiment: cell-based or functional assay; remark: listed apart in the source
[18] = target: T2, human MASP-2A (catalytically inactive …); experiment: SPR (Biacore), scFv captured by anti-cMyc antibody, MASP-2A in solution
[19] = target: T2, human MASP-2A (catalytically inactive …); experiment: titration ELISA on coated human MASP-2A ('Binding affinity'), F(ab′)2
Method: The clones were then purified and re-tested in an ELISA and activity assay as follows. Human MASP-2A was coated at 3 μg/ml in PBS on a maxisorp plate, IgG (45 μg/ml) and Fab′2 (30 μg/ml) were diluted in PBS-Tween to a starting concentration of 300 nM, and further with 3-fold dilutions. IgGs were detected with HRP conjugated Goat α-Human IgG (Southern Biotech) and the F(ab′)2 were detected with HRP-conjugated Goat α-Human IgG H+L (Pierce 31412). The reaction was developed with TMB substrate and stopped with 2M H₂SO₄.

Binder | Complement assay IC50 [1] [nM] | Kd [2] [nM] | 1% human serum C3 assay IC50 [3] [nM] | EC50 (read off the curve) [4] [nM] | IC50, C3c release, 0.2% African Green serum (first experiment) [5] [nM] | IC50, C3c release, 0.2% African Green serum (second experiment) [5] [nM] | IC50, C3c release, 1% human serum (first experiment) [6] [nM] | IC50, C3c release, 1% human serum (second experiment) [6] [nM] | IC50, C3c release, 0.375% rat serum (second experiment) [7] [nM] | Kd [8] [nM] | Functional IC50, C3b deposition, non-human primate serum Exp #1 [10] [nM] | Functional IC50, C3b deposition, non-human primate serum Exp #2 [10] [nM] | Functional IC50, C3b deposition, human serum Exp #1 [11] [nM] | Functional IC50, C3b deposition, human serum Exp #2 [11] [nM] | Functional IC50, C3b deposition, human serum Exp #3 [11] [nM] | Functional IC50, C3b deposition, human serum Exp #4 [11] [nM] | Inhibitory activity in Human Serum IC50 (C3b deposition, 0.5% human serum) [12] [nM] | C3 convertase assay using 1% human serum, IC50 (first experiment) [14] [nM] | C3 convertase assay using 1% human serum, IC50 (second experiment) [14] [nM] | other results
B1 | 10.3 | 48.6 | 48 | ~0.8 | 63.8 | 81.1 | 39.9 | 57.7 | 141 |  |  |  |  |  |  |  |  |  |  | 90% human serum C3 assay IC50 [3]: 15 nM; 90% human serum C4 assay IC50 [3]: 230 nM; IC50, C3c release, 0.375% rat serum (first experiment) [7]: 79.3 nM
B2 |  |  |  |  |  |  |  |  |  | 8.4 | 115 | 203 | 22 | 46.3 | 62.2 | 38.4 | 22 |  |  | Kd [9]: 0.02 nM
B3 |  |  |  |  |  |  |  |  |  |  |  |  |  |  |  |  |  |  |  | binding result [13]: binds
B4 | 8.8 | 18.9 | 68 | ~0.9 | 92.9 | 81.4 | 65.3 | 73.5 | 196 | 3560 | 95.6 | 58.8 | 15.4 | 65.4 | 24.8 | 19.2 | 15.4 | 36.2 | 77.6 | Kd [15]: 18.9 nM; C3 Assay IC50, non-human primate serum Exp #1 [16]: 95 nM; C3 Assay IC50, non-human primate serum Exp #2 [16]: 58 nM; C3 Assay IC50, non-human primate serum mean [16]: 76 nM; C3 Assay IC50 in dilute serum (1%), human serum Exp #1 [17]: 19 nM; C3 Assay IC50 in dilute serum (1%), human serum Exp #2 [17]: 24 nM; C3 Assay IC50 in dilute serum (1%), human serum Exp #3 [17]: 65 nM; C3 Assay IC50 in dilute serum (1%), human serum mean [17]: 36 nM; Kd [18]: 1.68 nM
B5 |  |  |  |  |  |  |  |  |  |  |  |  |  |  |  |  |  | 7.3 | 13.5 | Kd [19]: 0.181 nM
